From PMC3512577 (Nature structural & molecular biology, 2011) come the findings set out here.

Test [1] has as its target recombinant C3d D122A (D1115A) (human) (UniProt P01024). The test can be described thus: SPR. A general note: In SPR one partner is held on a chip, and binding of the other changes the refractive index at the surface.
The target in test [2] is recombinant C3d D122A (D1115A), with C17A (C1011A) (human, UniProt P01024 996-1306, D122A (D1115A)). Nature of the test: SPR.
Test [3] addresses recombinant C3d E117A (E1110A), with C17A (C1011A) (human, UniProt P01024 996-1306, E117A (E1110A)). Nature of the test: SPR.
The target of test [4] is recombinant C3d E117A/D122A (E1110A/D1115A), with C17A (C1011A) (human, UniProt P01024 996-1306, E117A (E1110A) | D122A (D1115A)). Nature of the test: SPR.
In another test the target is plasma-derived C3d (UniProt P01024 996-1303). The test can be described thus: NMR titration.

“complement factor H CCP19–20, wild type (FH19–20) (from UniProt P08603 1108-1231) (domain or fragment)”: the Kd (commonly the free concentration of one partner at which half of the binding sites on the other are occupied at equilibrium, for simple one-to-one binding) in test [1] came out at 46 µM.

As to “FH19–20 L1189F (from UniProt P08603 1108-1231) (domain or fragment)”, in test [1], the Kd was 46 µM.

B1: FH19–20 (wild-type recombinant fragment of human complement factor H, CCP modules 19 and 20) (domain or fragment, UniProt P08603 1108-1231, looked up)
chain: KCGPPPPIDNGDITSFPLSVYAPASSVEYQCQNLYQLEGNKRITCRNGQWSEPPKCLHPCVISREIMENYNIALRWTAKQKLYSRTGESVEFVCKRGYRLSSRSHTLRTTCWDGKLEYPTCAKR
modifications: 15N-labelled (NMR experiments only)
For B1, in test [2], the “fold decrease in binding against C3d E160A and I164A” value was 3 fold; the “fold decrease in binding against wild-type C3d” value is 6 fold. Further, in test [3], the “fold decrease in binding against C3d E160A and I164A” value is 2 fold; the “fold decrease in binding against wild-type C3d” value amounted to 4 fold. Besides, in test [4], the Kd is approximately 30 mM and the “fold decrease in affinity against wild-type C3d” value is approximately 1600 fold. Moreover, the binding result with plasma-derived C3d was “binds”.
